According to patent US20040072333A1, “Method of purifying lantibiotics” (ImmuCell Corporation, priority 2002, published 2004):
Where no end group is shown, it is not given here.

How the values were obtained:
pepsin = experiment: Protease digestion with pepsin; format: physicochemical
Method: (§1) Nisin is comparatively resistant to proteolysis by trypsin under the optimized conditions described above. To determine whether nisin is also resistant to other proteolytic enzymes under similar conditions, partially purified nisin was exposed to pepsin, thrombin, V8 protease (Endo Gluc), subtilisin, papain, thermolysin, or clostripain at pH 5.80. Pepsin exposure was also performed at pH 3.50. […] Pepsin at pH 5.80 and thrombin appeared ineffective against the impurities as well.
(§2) Digestion experiments using pepsin (EC3.4.23.1), thrombin (EC3.4.21.5), V8 protease (EC3.4.21.19), subtilisin (EC3.4.21.62), papain (EC3.4.22.2), thermolysin (EC3.4.24.27), and clostripain (EC3.4.22.8) were performed essentially as described for trypsin and at pH 5.80. Pepsin digestion was also performed at pH 3.50. For trypsin digestions using trypsin linked to a solid matrix (e.g. insoluble trypsin), 1.6 liters of partially purified nisin was prepared at 9.5 mg/ml in 10 mM Tris HCl and pH 5.50. Following the addition of 1.6 ml of TPCK-treated trypsin bound to beaded agarose (Sigma Chemical Company), the reaction mixture was incubated at 30° C. for 6 hours with frequent agitation. Insoluble trypsin was removed by centrifugation at approximately 4000×g for 7 minutes. The resultant supernatant containing nisin was prepared for HPLC analysis.

trypsin [1] = experiment: Tryptic digestion of nisin at pH 7.0, SDS-PAGE and HPLC; format: physicochemical; settings: pH 7.0, nisin to trypsin about 10:1 (w/w), 30° C., after 96 hr
Method: Nisin has two internal lysine residues that are potential targets of the proteolytic enzyme trypsin. To determine whether nisin could be digested by trypsin, a digestion reaction mixture was prepared where a nisin preparation, partially purified nisin from a fermentor run, was exposed to trypsin under conditions optimal for trypsin activity. These conditions included a reaction pH of 7.0 and a nisin to trypsin ratio of about 10:1 (w/w). Samples were incubated at 30° C. and aliqoutes were removed for analysis every 24 hr, beginning at time zero. […] After 96 hr of treatment, more than 90% of nisin was degraded.
Tryptic digestion of nisin (50 mg) was carried out in 50 ml of a buffer consisting of 25mM sodium acetate, 6 mM Tris acetate, 5 mM CaCl2, and pH 7.0. One ml of USP grade trypsin (5mg/ml) was added followed by incubation at 30° C. Thereafter, 500 μl aliqouts of trypsin were added at times 24, 48, 72, and 96 hours. At each time point in the experiment, 2 ml aliquots were removed for further analysis, of which […] was immediately plated on blood agar plates for determination of contamination. The remaining 1.8 ml was stored at −20° C. until the end of experiment for SDS-PAGE and HPLC analysis.

trypsin [2] = experiment: Soluble trypsin digestion at low pH and low trypsin to nisin ratio, HPLC; format: physicochemical; settings: below pH 5.50, nisin 11 mg/ml, trypsin 27.5 μg/ml (400:1 w/w), overnight, room temperature
Method: Peptide analysis has identified over 40 peptides that co-purify with nisin. All of these peptides have been identified as being products of Lactococcus fermentation. Since it was determined that nisin, at neutral to slightly alkaline pH and high trypsin to nisin ratios, is subject to proteolysis by trypsin, conditions were altered in an attempt to identify conditions under which trypsin would not degrade nisin but would degrade the peptide impurities in the nisin sample. Reaction mixtures containing nisin preparations, at a concentration of 11 mg/ml, and USP grade trypsin at a concentration of 27.5 μg/ml, were incubated overnight at room temperature (400:1 w/w). The pH of the mixtures ranged from 5.25 to 6.5.
To further optimize the conditions for removal of peptide impurities from nisin preparations by tryptic digestion, two liters of partially purified nisin was prepared at 4.55 mg/ml and incubated with 25 mg of USP grade trypsin for 16 hrs at 30° C. in 10 mM citric acid, pH 5.80. […] Moreover, subsequent removal of trypsin using a molecular weight cut off membrane yielded a recovery of 87.5% nisin and 0.38% trypsin.
For treatment of nisin with soluble trypsin, 2 liters of partially purified nisin from a fermentation product was prepared at 4.55 mg/ml in 10 mM citric acid buffer and 5 mM CaCl2. […] Nisin recovery and purity was determined by SDS-PAGE and HPLC. […]

thrombin = thrombin (Homo sapiens, UniProt P00734); experiment: Protease digestion with thrombin; format: physicochemical; settings: pH 5.80
Method: as §1, §2

subtilisin = subtilisin (Bacillus licheniformis, UniProt P00780); experiment: Protease digestion with subtilisin; format: physicochemical; settings: pH 5.80
Method: as §1, §2

clostripain = target: T1, clostripain (Hathewaya histolytica, UniProt P09870); experiment: Protease digestion with clostripain; format: physicochemical; settings: pH 5.80
T1 sequence (P09870 whole entry, looked up): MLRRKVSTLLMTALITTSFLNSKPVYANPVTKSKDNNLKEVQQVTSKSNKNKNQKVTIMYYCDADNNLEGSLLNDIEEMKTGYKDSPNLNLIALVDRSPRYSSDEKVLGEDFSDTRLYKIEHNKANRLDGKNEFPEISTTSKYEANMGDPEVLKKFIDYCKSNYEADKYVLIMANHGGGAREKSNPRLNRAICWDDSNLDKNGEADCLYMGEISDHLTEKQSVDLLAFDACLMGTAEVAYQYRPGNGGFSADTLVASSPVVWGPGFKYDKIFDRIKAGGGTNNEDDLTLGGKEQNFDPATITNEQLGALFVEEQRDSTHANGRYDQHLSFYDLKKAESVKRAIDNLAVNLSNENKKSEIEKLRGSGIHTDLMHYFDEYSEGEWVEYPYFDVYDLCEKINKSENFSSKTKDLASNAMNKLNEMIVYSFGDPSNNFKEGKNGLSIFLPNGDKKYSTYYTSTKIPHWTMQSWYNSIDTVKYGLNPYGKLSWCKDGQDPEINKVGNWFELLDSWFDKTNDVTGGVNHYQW
Method: as §1, §2

papain = target: T2, papain (Carica papaya, UniProt P00784); experiment: Protease digestion with papain; format: physicochemical; settings: pH 5.80
T2 sequence (P00784 134-345): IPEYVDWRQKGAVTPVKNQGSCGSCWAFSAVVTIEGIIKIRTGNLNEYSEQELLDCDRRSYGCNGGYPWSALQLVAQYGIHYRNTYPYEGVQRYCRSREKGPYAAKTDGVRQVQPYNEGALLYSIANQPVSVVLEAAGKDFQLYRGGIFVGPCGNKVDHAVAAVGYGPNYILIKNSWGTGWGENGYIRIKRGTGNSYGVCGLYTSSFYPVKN
Method: as §1, §2

thermolysin = thermolysin (Bacillus thermoproteolyticus, UniProt P00800); experiment: Protease digestion with thermolysin; format: physicochemical; settings: pH 5.80
Method: as §1, §2

[3] = target: T3, TPCK treated insoluble trypsin (Bos taurus, UniProt P00760); experiment: Insoluble trypsin (bound to beaded agarose) digestion, HPLC; format: physicochemical; settings: 9.55 mg/ml, 1.6 ml insoluble trypsin on agarose, 6 hr, 30° C., trypsin removed by centrifugation
T3 construct: purchased Sigma Chemical Company
T3 sequence (P00760 24-246): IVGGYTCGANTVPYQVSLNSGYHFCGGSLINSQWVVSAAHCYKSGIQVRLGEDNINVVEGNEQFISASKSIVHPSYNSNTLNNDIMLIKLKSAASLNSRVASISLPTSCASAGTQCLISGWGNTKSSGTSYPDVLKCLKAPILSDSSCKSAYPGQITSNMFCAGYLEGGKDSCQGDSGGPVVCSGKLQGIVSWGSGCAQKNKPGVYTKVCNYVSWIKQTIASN
Method: To determine whether insoluble trypsin treatment of nisin preparations was also effective in digestion of impurities, but not nisin itself, 1.6 liters of partially purified nisin prepared at 9.55 mg/ml was treated with 1.6 ml of TPCK treated insoluble trypsin bound to beaded agarose. After 6 hr of incubation at 30° C., and following removal of insoluble trypsin by centrifugation, the overall nisin recovery was about 90%.
as §2

V8 protease (Endo Gluc) = V8 protease (Endo Gluc) (Staphylococcus aureus, UniProt P0C1U8); experiment: Protease digestion with V8 protease; format: physicochemical; settings: pH 5.80
Method: as §1, §2

[4] = test system: mastitic isolate of Streptococcus agalactiae (strain #20); experiment: Antibacterial 96 well plate assay; format: cell-based; settings: bacterial growth read as absorbance
Method: To confirm that the biological activity of nisin is also unaltered, in vitro bactericidal activity assay was performed. Trypsin-treated nisin was analyzed for antibacterial activity against a mastitic isolate of Streptococcus agalactiae (strain #20) in a 96 well plate assay and bacterial growth was read as absorbance readings on an ELISA reader.
Nisin activity was determined using an antibacterial assay against a mastitic isolate of Streptococcus agalactiae (IC 20) in a 96 well plate assay. Test samples were serially diluted into M17 10% lactose medium and then mixed with an equal volume of 10^4 cfu/ml. After 66 hr of incubation at room temperature, the plates were read on an ELISA reader at 450 nm. Wells containing bacterial growth gave high absorbance readings. The data was analyzed using a four-parameter curve-fitting software.

non-mastitic cows = experiment: Mammary infusion, somatic cell count of quarter milk; format: in vivo
Method: Bovine intra-mammary infusion of impure nisin stimulates the production of high levels of somatic cells in milk as part of an inflammatory reaction.
Non-mastitic cows were treated with an infusion of vehicle, untreated, and trypsin-treated nisin (30 mg/10 ml) in the quarter after the 4th, 5th, and 6th milkings. The somatic cell count of the milk was recorded before, during, and after milking. High somatic cell counts were indicative of an inflammatory reaction. Statistical analysis was carried out using two sided t-Test comparisons with unequal variance.

Chain of thermolysin (P00800 233-548): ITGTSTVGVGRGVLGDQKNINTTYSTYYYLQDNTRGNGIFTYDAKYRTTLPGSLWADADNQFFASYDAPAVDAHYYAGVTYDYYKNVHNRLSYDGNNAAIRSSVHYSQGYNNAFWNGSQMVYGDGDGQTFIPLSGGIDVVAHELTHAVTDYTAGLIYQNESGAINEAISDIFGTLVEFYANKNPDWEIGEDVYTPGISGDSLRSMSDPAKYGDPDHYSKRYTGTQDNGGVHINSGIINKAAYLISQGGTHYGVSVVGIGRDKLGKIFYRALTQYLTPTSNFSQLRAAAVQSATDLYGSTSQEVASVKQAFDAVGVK
Chain of V8 protease (Endo Gluc) (P0C1U8 69-336): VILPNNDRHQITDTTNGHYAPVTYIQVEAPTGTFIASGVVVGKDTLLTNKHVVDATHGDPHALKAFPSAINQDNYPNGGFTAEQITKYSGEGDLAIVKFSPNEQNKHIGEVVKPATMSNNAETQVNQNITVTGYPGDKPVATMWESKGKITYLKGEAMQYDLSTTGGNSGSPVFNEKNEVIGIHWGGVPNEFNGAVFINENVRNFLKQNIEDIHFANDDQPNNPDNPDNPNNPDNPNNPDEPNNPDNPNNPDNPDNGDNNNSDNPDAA
Chain of subtilisin (P00780 106-379): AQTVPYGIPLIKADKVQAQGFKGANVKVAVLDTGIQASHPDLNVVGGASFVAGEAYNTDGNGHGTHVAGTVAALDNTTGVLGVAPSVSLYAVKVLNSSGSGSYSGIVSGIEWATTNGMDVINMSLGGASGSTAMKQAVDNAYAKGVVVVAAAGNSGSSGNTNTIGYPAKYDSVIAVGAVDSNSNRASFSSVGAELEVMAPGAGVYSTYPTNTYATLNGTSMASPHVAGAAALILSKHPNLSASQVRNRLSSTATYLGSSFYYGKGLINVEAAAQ

## nisin (ITSISLCTPGCKTGALMGCNMKTATCHCSIHVSK; cysteine pairing not given here; also: lantibiotic nisin-A, modified residues not placed; UniProt P13068 24-57, looked up) [lysine-rich lantibiotic, polypeptide antimicrobial agent with lanthionine and β-methyl-lanthionine residues, used as food preservative]
pepsin; pH 3.50
  proteolytic digestion of nisin by pepsin: did not digest nisin
pepsin; pH 5.80
  proteolytic digestion of nisin by pepsin: resistant
Trypsin [1]
  nisin degraded by trypsin: more than 90%
Trypsin [2]
  hydrolysis of nisin by trypsin: minimal hydrolysis
thrombin
  proteolytic digestion of nisin by thrombin: resistant
subtilisin
  proteolytic digestion of nisin by subtilisin: resistant
clostripain
  proteolytic digestion of nisin by clostripain: resistant
papain
  proteolytic digestion of nisin by papain: resistant
thermolysin
  proteolytic digestion of nisin by thermolysin: resistant
[3]
  overall nisin recovery after insoluble trypsin incubation: about 90%
V8 protease (Endo Gluc)
  proteolytic digestion of nisin by V8 protease: resistant

## trypsin/nisin: nisin preparation purified by selective trypsin digestion of peptide impurities (ITSISLCTPGCKTGALMGCNMKTATCHCSIHVSK; also: lantibiotic nisin-A: lanthionine thioether rings, Dha/Dhb, positions not given here; UniProt P13068 24-57, looked up)
[4]
  antimicrobial activity compared with control, untreated nisin: not substantially different
non-mastitic cows; intra-mammary infusion of 30 mg, non-mastitic cows
  somatic cell count of milk from treated quarters (inflammatory reaction), summary in words: much lower and is not statistically different from quarters treated with buffer alone
non-mastitic cows; milking 1 (before treatments; infusions 30 mg/10 ml given after 4th, 5th, 6th milkings)
  Somatic Cell Count of Quarter Milk, mean of group: 10 X1000
non-mastitic cows; milking 2 (before treatments)
  Somatic Cell Count of Quarter Milk, mean of group: 22 X1000
non-mastitic cows; milking 3 (before treatments)
  Somatic Cell Count of Quarter Milk, mean of group: 23 X1000
non-mastitic cows; milking 4 (before first treatment)
  Somatic Cell Count of Quarter Milk, mean of group: 21 X1000
non-mastitic cows; milking 5, infusions 30 mg/10 ml after 4th, 5th, 6th milkings
  Somatic Cell Count of Quarter Milk, mean of group: 54 X1000
non-mastitic cows; milking 6
  Somatic Cell Count of Quarter Milk, mean of group: 187 X1000
non-mastitic cows; milking 7
  Somatic Cell Count of Quarter Milk, mean of group: 300 X1000
non-mastitic cows; milking 8
  Somatic Cell Count of Quarter Milk, mean of group: 148 X1000
non-mastitic cows; milking 9
  Somatic Cell Count of Quarter Milk, mean of group: 106 X1000
non-mastitic cows; milking 10
  Somatic Cell Count of Quarter Milk, mean of group: 82 X1000
non-mastitic cows; milking 11
  Somatic Cell Count of Quarter Milk, mean of group: 103 X1000
non-mastitic cows; milking 12
  Somatic Cell Count of Quarter Milk, mean of group: 81 X1000
non-mastitic cows; milking 13
  Somatic Cell Count of Quarter Milk, mean of group: 60 X1000
non-mastitic cows; milking 14
  Somatic Cell Count of Quarter Milk, mean of group: 36 X1000
non-mastitic cows; milking 15
  Somatic Cell Count of Quarter Milk, mean of group: 53 X1000
non-mastitic cows; milking 16
  Somatic Cell Count of Quarter Milk, mean of group: 37 X1000
non-mastitic cows; milking 17
  Somatic Cell Count of Quarter Milk, mean of group: 40 X1000
non-mastitic cows; milking 18
  Somatic Cell Count of Quarter Milk, mean of group: 41 X1000
